Reference: patent publication US8268779B2, “Pharmaceutical composition comprising oxyntomodulin derivatives and a method for reducing body weight using the composition” (Merck Sharp & Dohme Corp., priority 2006, dated 2012)
Non-standard residues stand in square brackets, D forms with d. Residues, ends and D or L forms follow the SMILES beside them. No end group written: not given here. *: point of attachment. C3 = cysteine residue PEGylated via the side-chain thiol with branched methoxyPEG [(mPEG)2] of 40 kDa (Cys(mPEG)2 40 kDa); (mPEG)2 40 kDa = C3 = Cys(mPEG)2 40 kDa, cysteine PEGylated via side-chain thiol with branched mPEG of 40 kDa; Desaminohistidyl = O=C(CCc1c[nH]cn1)*; Met(O) = CS(=O)CC[C@H](N)C(=O)O; Aib = CC(C)(N)C(=O)O

How the values were obtained:
[1] = target: T1, hGLP-1R (Homo sapiens, UniProt P43220); test: EC50 (hGLP-1R), nM | "-DPP-IV"
Experimental: (§1) Table printed on a drawing sheet, FIG.17
Head of the field: EC50 (hGLP-1R), nM | "-DPP-IV"
(§2) First copying reader's note: The "+DPP-IV" column is the hGLP-1R EC50 measured after incubation with DPP-IV, so stability is shown as a potency shift against the "-DPP-IV" column.
(§3) Where the first naming reader finds the target: head: EC50 (hGLP-1R), nM

[2] = target: T1, hGLP-1R; test: EC50 (hGLP-1R), nM | "+DPP-IV"
Experimental: as §1, §2, §3

[3] = system: islets from GLP-1R−/− mice; test: GSIS in GLP-1R-/- islets; format: cell-based, mouse; conditions: 10 nM peptide, 16 mmol/l glucose
Experimental: (§4) To measure GSIS, islets were first preincubated for 30 minutes in the Krebs-Ringer bicarbonate (KRB) buffer with 2 mM glucose (in Petri dishes). […] Insulin was measured in aliquots of the incubation buffer by ELISA with a commercial kit (ALPCO Diagnostics, Windham, N.H.).

[4] = system: islets from GCG-R−/− mice; test: GSIS in GCG-R-/- islets; conditions: 10 nM peptide
Experimental: as §4

[5] = system: islets from wild type C57BL/6 mice; test: Glucose-stimulated insulin secretion (GSIS) in wild type murine islets; format: cell-based, mouse
Experimental: as §4

[6] = system: Male C57BL/6N mice; test: Acute effects on food intake and body weight in lean mice; format: in vivo, mouse; conditions: for overnight body weight gain in mice fed ad libitum: equimolar/similar doses; for overnight food intake and body weight gain in lean mice: FIG. 3
Experimental: Absolute changes in food intake were calculated for each animal by subtracting the amount of food remaining in the food hopper at the specified time points from that of the corresponding original pre-weighed aliquot. Absolute changes in body weight were calculated for each animal by subtracting the body weight of the animal prior to dosing from that of the corresponding animal at the specified time points. All values were reported as mean±SEM and peptide treatment groups were analyzed by the two-tailed unpaired Student's t test with reference to vehicle-treated animals. […] (FIG. 3)

[7] = system: mutant form of the human GLP-1R; test: GLP-1R cAMP HTRF assay in transfected CHO cells; format: cell-based
[8] = target: T2, recombinant soluble human DP-IV (Homo sapiens, UniProt P27487); test: Resistance to DP-IV cleavage (preincubation with DP-IV, then hGLP-1R cAMP HTRF assay); format: in vitro ADME; conditions: FIG. 1
T2 construct: recombinant soluble human DP-IV
T2 sequence (P27487 39-766 limits assumed): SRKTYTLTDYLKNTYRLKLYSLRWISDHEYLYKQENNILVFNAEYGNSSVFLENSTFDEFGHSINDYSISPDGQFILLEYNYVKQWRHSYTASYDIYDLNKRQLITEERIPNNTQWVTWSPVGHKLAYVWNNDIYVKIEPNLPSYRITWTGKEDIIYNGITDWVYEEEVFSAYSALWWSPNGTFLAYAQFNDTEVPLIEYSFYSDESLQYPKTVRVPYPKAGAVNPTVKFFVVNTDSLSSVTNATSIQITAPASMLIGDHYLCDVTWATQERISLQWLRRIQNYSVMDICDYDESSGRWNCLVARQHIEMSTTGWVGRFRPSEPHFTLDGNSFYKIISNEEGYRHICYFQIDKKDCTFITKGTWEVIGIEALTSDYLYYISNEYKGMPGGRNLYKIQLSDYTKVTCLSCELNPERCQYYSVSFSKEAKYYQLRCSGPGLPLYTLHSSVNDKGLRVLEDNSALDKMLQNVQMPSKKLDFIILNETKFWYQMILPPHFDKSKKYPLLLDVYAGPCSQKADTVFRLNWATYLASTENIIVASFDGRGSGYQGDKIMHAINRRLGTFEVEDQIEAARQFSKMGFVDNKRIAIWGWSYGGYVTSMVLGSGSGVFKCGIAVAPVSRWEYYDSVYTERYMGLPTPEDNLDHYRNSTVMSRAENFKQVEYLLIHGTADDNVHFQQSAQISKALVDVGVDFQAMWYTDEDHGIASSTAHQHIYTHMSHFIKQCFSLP
Experimental: Activation of hGLP-1R was subsequently measured using the Cis Bio HTRF cAMP assay and compared to control peptides pre-incubated at 37° C. for 2 hours in the absence of DP-IV.

[9] = Hydrolysis sites on incubation in PBS containing 10% mouse or human plasma; format: in vitro ADME; conditions: 37° C.
Experimental: A detailed study was undertaken in which OXM139 was incubated in PBS containing 10% of mouse or human plasma at 37° C. Sample preparation was accomplished by mixing 1 μL of test solution and 1 μL of matrix (α-cyano) directly on the sample plate. After crystallization Tof spectrum was collected: Time points at 30, 60, 120 and 720 minutes were analyzed and compared with the same time points of the control test solutions. […] Specifically, Arg 17 was mutated to Glu and Arg 18 was mutated to Ala. The peptide OXM153 is the N-ethyl maleimide analog of OXM151. The peptide OXM154 is the conjugate obtained using a (mPEG)240 kDa from NOF Corporation (SUNBRIGHT GL2-400MA Maleimide).
A similar study of stability was performed on a GcgK series analog OXM144 to determine the primary sites of hydrolysis by incubation with PBS, containing 10% of either mouse or human plasma. […] For this reason, it was decided to introduce mutations at the sites 17 and 18 also in the GcgK analog series.

[10] = system: glucagon-like activity; test: Glucagon-like activity in vitro (FIG. 13)
[11] = system: WT mice; test: IPGTT with plasma glucose and insulin in WT mice; format: in vivo, mouse; conditions: OXM 0.3 mpk i.p., exendin-4 0.02 mpk i.p.
[12] = system: mice; test: Gastric emptying in mice; format: in vivo, mouse; conditions: maximally efficacious dose for glucose lowering
[13] = system: GLP-1R−/− mice; test: IPGTT with plasma glucose and insulin in GLP-1R-/- mice; format: in vivo, mouse

Work on CSCC[C@H](NC(=O)[C@H](CC(C)C)NC(=O)[C@H](Cc1c[nH]c2ccccc12)NC(=O)[C@H](CCC(N)=O)NC(=O)[C@@H](NC(=O)[C@H](Cc1ccccc1)NC(=O)[C@H](CC(=O)O)NC(=O)[C@H](CCC(N)=O)NC(=O)[C@H](C)NC(=O)[C@H](CCCNC(=N)N)NC(=O)[C@H](CCCNC(=N)N)NC(=O)[C@H](CO)NC(=O)[C@H](CC(=O)O)NC(=O)[C@H](CC(C)C)NC(=O)[C@H](Cc1ccc(O)cc1)NC(=O)[C@H](CCCCN)NC(=O)[C@H](CO)NC(=O)[C@H](Cc1ccc(O)cc1)NC(=O)[C@H](CC(=O)O)NC(=O)[C@H](CO)NC(=O)[C@@H](NC(=O)[C@H](Cc1ccccc1)NC(=O)[C@@H](NC(=O)CNC(=O)[C@H](CC(=O)O)NC(=O)C(C)(C)NC(=O)[C@@H](N)Cc1c[nH]cn1)[C@@H](C)O)[C@@H](C)O)C(C)C)C(=O)N[C@@H](CC(N)=O)C(=O)N[C@H](C(=O)N[C@@H](CCCCN)C(N)=O)[C@@H](C)O [OXM131] (H-H[Aib]DGTFTSDYSKYLDSRRAQDFVQWLMNTK-NH2; N-terminus assumed) yielded an EC50 [1] of 0.9 nM and an EC50 [2] of 2.2 nM.

For “GLP-1: incretin hormone glucagon-like peptide 1, positive control”, the “potentiation of GSIS in GLP-1R−/− islets” value [3] was “completely unable to enhance GSIS”, the “GSIS in GCG-R−/− islets” value ([4]; 16 mM glucose) was “significantly increased GSIS” and the “fold-increase in fractional GSIS in GCG-R−/− islets” value ([4]; % insulin released relative to total islet insulin content) was 2.5 fold. The “GSIS in WT islets” value ([5]; 10 nM peptide, 16 mmol/l glucose) was “enhanced GSIS in WT islets with equal efficacy” and the “potentiation of GSIS in WT islets in the presence of exendin-9” value ([5]; 0.5 μM exendin-9) was “completely blocked”.

Compound “H2αDGTFTSDYSKYLDSRRAC3DFVQWLmNTKRNRNNIA-CONH2 ([Desaminohistidyl][Aib]DGTFTSDYSKYLDSRRAC((mPEG)2 40 kDa)DFVQWL[Met(O)]NTKRNRNNIA-NH2) [OXM129]” has an EC50 [1] of 25 nM and an EC50 [2] of 123 nM.

With “H2αQGTFTSDYSKYLDSRRAQDFVQWLmNTKRNRNNIAC3-CONH2 (XXQGTFTSDYSKYLDSRRAQDFVQWLXNTKRNRNNIAX; Aib2, D-Met, C-terminal amide, conjugated Cys; Synthetic peptide based on the human oxyntomodulin sequence) [OXM113]” the EC50 [1] was 93.3 nM and the EC50 [2] was 92.3 nM.

Compound “H2αQGTFTSDYSKYLDSRRAQDFVQWLmNTKRNRNNIAC4-CONH2 (XXQGTFTSDYSKYLDSRRAQDFVQWLXNTKRNRNNIAX; Aib2, D-Met, C-terminal amide, conjugated Cys; Synthetic peptide based on the human oxyntomodulin sequence) [OXM114]” has an EC50 [1] of 0.06 nM and an EC50 [2] of 0.05 nM.

With “H2αQGTFTSDYSKYLDSRRAQDFVQWLmNTKRNRNNIAC5-CONH2 (XXQGTFTSDYSKYLDSRRAQDFVQWLXNTKRNRNNIAX; Aib2, D-Met, C-terminal amide, modified Cys; Synthetic peptide based on the human oxyntomodulin sequence) [OXM112]” the EC50 [1] was 6.9 nM and the EC50 [2] was 10.9 nM.

With “HGQGTFTSDYSKYLDSRRAQDFVQWLMNTKRNRNNIAA-COOH (Synthetic peptide based on the human oxyntomodulin sequence) [OXM1]” the “overnight body weight gain in mice fed ad libitum” value (shortened to “overnight body weight gain”) [6] was “not efficacious”.

In the case of “HGQGTFTSDYSKYLDSRRAQDFVQWLMNTKRNRNNIAC2-COOH (HGQGTFTSDYSKYLDSRRAQDFVQWLMNTKRNRNNIAX; C2 conjugate at C-terminal cysteine; Synthetic peptide based on the human oxyntomodulin sequence) [OXM2]”, the “potency against GLP-1R in vitro relative to native OXM” value [7] is reported as “significantly less potent than native OXM”, the “overnight food intake and body weight gain in lean mice” value [6] is reported as “reducing overnight food intake and body weight gain” and the “overnight body weight gain” value [6] is reported as “effective in reducing overnight body weight gain”. For the same compound, the “hGLP-1R potency after preincubation of the peptide with DP-IV” value [8] was “loss of potency”.

In the case of “HGQGTFTSDYSKYLDSRRAQDFVQWLMNTKRNRNNIAC3-COOH (HGQGTFTSDYSKYLDSRRAQDFVQWLMNTKRNRNNIAX; C3 conjugate at C-terminal cysteine; Synthesized oxyntomodulin polypeptide) [OXM3]”, the “potency against GLP-1R in vitro relative to native OXM” value [7] is reported as “significantly less potent than native OXM”, the “overnight food intake and body weight gain in lean mice” value [6] is reported as “reducing overnight food intake and body weight gain” and the “overnight body weight gain” value [6] is reported as “effective in reducing overnight body weight gain”.

“HαDGTFTSDYSKYLDSRRAC3DFVQWLmNTKRNRNNIA-CONH2 [OXM125]” gave an EC50 [1] of 3.9 nM and an EC50 [2] of 42.5 nM.

For “HαDGTFTSDYSKYLDSRRAC8DFVQWLmNTK-CONH2 [OXM144]”, the primary hydrolysis site [9] was “bond between Arg17 and Arg18” and the “secondary site of hydrolysis” value [9] was “bond between Arg18 and Ala19”.

Compound “HαDGTFTSDYSKYLDSRRAQDFVQWLmNTKRNRNNIAC3-CONH2 (H[Aib]DGTFTSDYSKYLDSRRAQDFVQWL[Met(O)]NTKRNRNNIAC((mPEG)2 40 kDa)-NH2) [OXM117, (mPEG)240 kDa conjugate made with MPEG2-MAL-40K (NEKTAR)]” has an EC50 [2] of 41.3 nM.

With “HαDGTFTSDYSKYLDSRRAQDFVQWLmNTKRNRNNIAC3-CONH2 [OXM117, (mPEG)240 kDa conjugate made with MPEG2-MAL-40K (NEKTAR)]” the “glucagon-like activity in vitro” value [10] was “no glucagon-like activity”.

In the case of “HαDGTFTSDYSKYLDSRRAQDFVQWLmNTKRNRNNIAC4-CONH2 [OXM118]”, the EC50 [1] is reported as 0.025 nM and the EC50 [2] is reported as < 0.5 nM.

For “HαDGTFTSDYSKYLDSRRAQDFVQWLmNTKRNRNNIAC8-CONH2 [OXM139]”, the primary hydrolysis site [9] was “bond between Arg17 and Arg18” and the “secondary site of hydrolysis” value [9] was “bond between Arg18 and Ala19”.

In the case of “HαQGTFTSDYC3KYLDSRRAQDFVQWLmNTKRNRNNIA-CONH2 [OXM121]”, the EC50 [1] is reported as > 125 nM and the EC50 [2] is reported as > 125 nM.

With “HαQGTFTSDYSC3YLDSRRAQDFVQWLmNTKRNRNNIA-CONH2 [OXM124]” the EC50 [1] was > 100 nM and the EC50 [2] was > 100 nM.

“HαQGTFTSDYSKYLDSRRAC3DFVQWLMNTKRNRNNIA-CONH2 (H[Aib]QGTFTSDYSKYLDSRRA[C3]DFVQWLMNTKRNRNNIA-NH2) [OXM103]” gave an EC50 [1] of 6.2 nM and an EC50 [2] of 12.7 nM.

Work on “HαQGTFTSDYSKYLDSRRAQC3FVQWLMNTKRNRNNIA-CONH2 (HXQGTFTSDYSKYLDSRRAQXFVQWLMNTKRNRNNIA; Aib2, C-terminal amide, conjugated Cys; Synthetic peptide based on the human oxyntomodulin sequence) [OXM105]” yielded an EC50 [1] of 28.5 nM and an EC50 [2] of 36.7 nM.

With “HαQGTFTSDYSKYLDSRRAQDC4VQWLmNTKRNRNNIA-CONH2 [OXM127]” the EC50 [1] was > 500 nM and the EC50 [2] was > 500 nM.

With “HαQGTFTSDYSKYLDSRRAQDFVC3WLmNTKRNRNNIA-CONH2 [OXM107]” the EC50 [1] was 29.7 nM and the EC50 [2] was 182 nM.

“HαQGTFTSDYSKYLDSRRAQDFVQWLMC3TKRNRNNIA-CONH2 (HXQGTFTSDYSKYLDSRRAQDFVQWLMXTKRNRNNIA; Aib2, C-terminal amide, conjugated Cys; Synthetic peptide based on the human oxyntomodulin sequence) [OXM109]” gave an EC50 [1] of 7.6 nM and an EC50 [2] of 14.5 nM.

Work on “HαQGTFTSDYSKYLDSRRAQDFVQWLMNTK-CONH2 (HXQGTFTSDYSKYLDSRRAQDFVQWLMNTK; Aib2, C-terminal amide; Synthetic peptide based on the human oxyntomodulin sequence) [OXM130]” yielded an EC50 [1] of 5.8 nM and an EC50 [2] of 8.7 nM.

Work on “HαQGTFTSDYSKYLDSRRAQDFVQWLmNTKRNRNNIAC3-CONH2 [OXM99]” yielded an EC50 [1] of 7.5 nM and an EC50 [2] of 27.5 nM.

“HαQGTFTSDYSKYLDSRRAQDFVQWLmNTKRNRNNIAC6-CONH2 [OXM100]” gave an EC50 [1] of 22.5 nM and an EC50 [2] of 184 nM.

In the case of “exendin-4: GLP-1 mimetic, GLP-1 receptor agonist used as comparator”, the “reduction of glucose AUC relative to the vehicle group” value [11] is reported as > 60%, the “reduction of gastric emptying” value [12] is reported as 47% and the basal insulin levels [13] is reported as “did not affect basal insulin levels”. The “insulin response to i.p. glucose challenge” value [13] was “nor did it improve the insulin response” and the “glucose excursion in IPGTT” value ([13]; same doses) was “did not affect glucose excursion”.
